Measured values published in paper PMC4547098 (eLife, 2015).

How the values were obtained:
[1] = molecular target: the molecule itself; experiment: crystal structure; Pikp-HMA alone; 0.1 M MIB buffer pH 5.0, 25% PEG 1500; dimer in the crystal
[2] = molecular target: AVR-PikD with non-cleavable C-terminal 6xHis tag (pOPINE) (Magnaporthe oryzae, UniProt C4B8B8 22-113); experiment: SPR; Biacore T200, 25°C, multi-cycle kinetics; […]; 50 mM HEPES pH 7.5, 150 mM NaCl, 0.1% Tween 20; […]; conditions: both partners purified

Row | Binder | stoichiometry N [1] | Kd [2]
1 | Pikp-HMA domain made in Sf9 cells for crystallisation (domain or fragment, rice (Oryza sativa), UniProt E9KPB5 186-258, looked up, also called Pikp1-HMA; not shown: 6xHis+SUMO, N-terminal, cleaved) GLKQKIVIKVAMEGNNCRSKAMALVASTGGVDSVALVGDLRDKIEVVGYGIDPIKLISALRKKVGDAELLQVS | 2 | 
2 | Pikp-HMA domain (HMA integrated domain of the rice NLR Pikp-1) (domain or fragment, also called Pikp1-HMA; Pikp-1 HMA; not shown: 6xHis+SUMO, N-terminal, cleaved) GLKQKIVIKVAMEGNNCRSKAMALVASTGGVDSVALVGDLRDKIEVVGYGIDPIKLISALRKKVGDAELLQVS |  | 31 ± 2 nM
